Numbering of substitutions follows the chain as printed. Names may count otherwise. “And” between values parts separate entries of the source, which are not always exact repeats. Identical values can stand only once.
Target: T1, Chryseobacterium sp-62563 deamidase polypeptide (second polypeptide, deamidase domain), wildtype (Chryseobacterium sp-62563)
T1 sequence: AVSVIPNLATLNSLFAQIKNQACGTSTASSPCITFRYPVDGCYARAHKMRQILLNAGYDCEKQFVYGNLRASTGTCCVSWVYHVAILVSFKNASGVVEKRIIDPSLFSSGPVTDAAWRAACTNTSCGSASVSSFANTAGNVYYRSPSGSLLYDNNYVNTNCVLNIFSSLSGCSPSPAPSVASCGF
Experiment: cell-based or functional assay

## Chryseobacterium sp-62563 propeptide S97SK
  NanoDSF thermal unfolding temperature: 81.4 ° C.
  Relative activity of maturated deamidase (% initial rate): > 100

## Chryseobacterium sp-62563 propeptide S97SS
  NanoDSF thermal unfolding temperature: 81.1 ° C.
  Relative activity of maturated deamidase (% initial rate): > 100

## Chryseobacterium sp-62563 propeptide S97SI
  Relative activity of maturated deamidase (% initial rate): 30

## Chryseobacterium sp-62563 propeptide T100TA
  Relative activity of maturated deamidase (% initial rate): 41

## Chryseobacterium sp-62563 propeptide S97SY
  NanoDSF thermal unfolding temperature: 82 ° C.
  Relative activity of maturated deamidase (% initial rate): 68

## Chryseobacterium sp-62563 propeptide I92*
  NanoDSF thermal unfolding temperature: 77.5 ° C.

## Chryseobacterium sp-62563 propeptide T100*
  NanoDSF thermal unfolding temperature: 81.7 ° C.
  Relative activity of maturated deamidase (% initial rate): 98

## Chryseobacterium sp-62563 propeptide V98*
  NanoDSF thermal unfolding temperature: 78.7 ° C.

## Chryseobacterium sp-62563 propeptide P44PA
  NanoDSF thermal unfolding temperature: 69.2 ° C.

## Chryseobacterium sp-62563 propeptide D90DA
  NanoDSF thermal unfolding temperature: 80.3 ° C.
  Relative activity of maturated deamidase (% initial rate): > 100

## Chryseobacterium sp-62563 propeptide K96*
  NanoDSF thermal unfolding temperature: 79.5 ° C.
  Relative activity of maturated deamidase (% initial rate): > 100

## Chryseobacterium sp-62563 propeptide F95FA
  NanoDSF thermal unfolding temperature: 79.8 ° C.
  Relative activity of maturated deamidase (% initial rate): > 100

## Chryseobacterium sp-62563 propeptide S97ST
  NanoDSF thermal unfolding temperature: 81.6 ° C.
  Relative activity of maturated deamidase (% initial rate): 99

## Chryseobacterium sp-62563 propeptide S97SF
  Relative activity of maturated deamidase (% initial rate): 50

## Chryseobacterium sp-62563 propeptide F95*
  NanoDSF thermal unfolding temperature: 77.1 ° C.
  Relative activity of maturated deamidase (% initial rate): > 100

B1: Chryseobacterium sp-62563 propeptide V25H (protein)
chain: NQDPNLVAKESNETAMKDFGKTVPHGIEKEDGKFKISFMVTAQPYEIKDSKENAAYISMIKTAVENETPIHVFLKANTNEIAKVDKATDDDIRYFKSVFTKEVKEENRK
  Leakage activity: 1%
  Relative activity of maturated deamidase (% initial rate): 76

B2: Chryseobacterium sp-62563 propeptide K33E (protein)
chain: B1 chain with H25V, K33E
  Leakage activity: 0%
  Relative activity of maturated deamidase (% initial rate): 66

B3: Chryseobacterium sp-62563 propeptide K35E (protein)
chain: B1 chain with H25V, K35E
  Leakage activity: 0%
  Relative activity of maturated deamidase (% initial rate): > 100

B4: Chryseobacterium sp-62563 propeptide F38A (protein)
chain: B1 chain with H25V, F38A
  Leakage activity: 2%
  Relative activity of maturated deamidase (% initial rate): 72

B5: Chryseobacterium sp-62563 propeptide F38C (protein)
chain: B1 chain with H25V, F38C
  Leakage activity: 26%
  NanoDSF thermal unfolding temperature: 76.2 ° C.
  Relative activity of maturated deamidase (% initial rate): 83

B6: Chryseobacterium sp-62563 propeptide F38T (protein)
chain: B1 chain with H25V, F38T
  Leakage activity: 2%
  Relative activity of maturated deamidase (% initial rate): 93

B7: Chryseobacterium sp-62563 propeptide V40P (protein)
chain: B1 chain with H25V, V40P
  Leakage activity: 0%
  Relative activity of maturated deamidase (% initial rate): 39

B8: Chryseobacterium sp-62563 propeptide T41D (protein)
chain: B1 chain with H25V, T41D
  Leakage activity: 0%

B9: Chryseobacterium sp-62563 propeptide T41E (protein)
chain: B1 chain with H25V, T41E
  Leakage activity: 0%
  Relative activity of maturated deamidase (% initial rate): 67

B10: Chryseobacterium sp-62563 propeptide A42K (protein)
chain: B1 chain with H25V, A42K
  Leakage activity: 0%
  Relative activity of maturated deamidase (% initial rate): > 100

B11: Chryseobacterium sp-62563 propeptide V23S (protein)
chain: B1 chain with V23S, H25V
  Leakage activity: 10% and 7%
  NanoDSF thermal unfolding temperature: 69.8 ° C.
  Relative activity of maturated deamidase (% initial rate): 94

B12: Chryseobacterium sp-62563 propeptide Q43D (protein)
chain: B1 chain with H25V, Q43D
  Leakage activity: 0%
  Relative activity of maturated deamidase (% initial rate): > 100

B13: Chryseobacterium sp-62563 propeptide Q43H (protein)
chain: B1 chain with H25V, Q43H
  Leakage activity: 0%

B14: Chryseobacterium sp-62563 propeptide Q43K (protein)
chain: B1 chain with H25V, Q43K
  Leakage activity: 3%
  Relative activity of maturated deamidase (% initial rate): 64

B15: Chryseobacterium sp-62563 propeptide Q43R (protein)
chain: B1 chain with H25V, Q43R
  Leakage activity: 0%
  Relative activity of maturated deamidase (% initial rate): 59

B16: Chryseobacterium sp-62563 propeptide Q43V (protein)
chain: B1 chain with H25V, Q43V
  Leakage activity: 0%

B17: Chryseobacterium sp-62563 propeptide Y45A (protein)
chain: B1 chain with H25V, Y45A
  Leakage activity: 0%
  Relative activity of maturated deamidase (% initial rate): 40

B18: Chryseobacterium sp-62563 propeptide Y45G (protein)
chain: B1 chain with H25V, Y45G
  Leakage activity: 2%
  NanoDSF thermal unfolding temperature: 65.2 ° C.
  Relative activity of maturated deamidase (% initial rate): > 100

B19: Chryseobacterium sp-62563 propeptide Y45K (protein)
chain: B1 chain with H25V, Y45K
  Leakage activity: 0%
  Relative activity of maturated deamidase (% initial rate): 48

B20: Chryseobacterium sp-62563 propeptide Y45N (protein)
chain: B1 chain with H25V, Y45N
  Leakage activity: 2%
  Relative activity of maturated deamidase (% initial rate): 73

B21: Chryseobacterium sp-62563 propeptide Y45Q (protein)
chain: B1 chain with H25V, Y45Q
  Leakage activity: 6%
  Relative activity of maturated deamidase (% initial rate): 88

B22: Chryseobacterium sp-62563 propeptide Y45S (protein)
chain: B1 chain with H25V, Y45S
  Leakage activity: 0%
  Relative activity of maturated deamidase (% initial rate): > 100

B23: Chryseobacterium sp-62563 propeptide Y45T (protein)
chain: B1 chain with H25V, Y45T
  Leakage activity: 2%
  NanoDSF thermal unfolding temperature: 73.7 ° C.
  Relative activity of maturated deamidase (% initial rate): > 100

B24: Chryseobacterium sp-62563 propeptide D49P (protein)
chain: B1 chain with H25V, D49P
  Leakage activity: 0%

B25: Chryseobacterium sp-62563 propeptide E52P (protein)
chain: B1 chain with H25V, E52P
  Leakage activity: 0%

B26: Chryseobacterium sp-62563 propeptide V64L (protein)
chain: B1 chain with H25V, V64L
  Leakage activity: 0%
  Relative activity of maturated deamidase (% initial rate): 49

B27: Chryseobacterium sp-62563 propeptide E67P (protein)
chain: B1 chain with H25V, E67P
  Leakage activity: 2%
  Relative activity of maturated deamidase (% initial rate): 53

B28: Chryseobacterium sp-62563 propeptide P69W (protein)
chain: B1 chain with H25V, P69W
  Leakage activity: 0%
  Relative activity of maturated deamidase (% initial rate): > 100

B29: Chryseobacterium sp-62563 propeptide P69Y (protein)
chain: B1 chain with H25V, P69Y
  Leakage activity: 0%
  Relative activity of maturated deamidase (% initial rate): > 100

B30: Chryseobacterium sp-62563 propeptide F73D (protein)
chain: B1 chain with H25V, F73D
  Leakage activity: 2%
  Relative activity of maturated deamidase (% initial rate): 31

B31: Chryseobacterium sp-62563 propeptide F73T (protein)
chain: B1 chain with H25V, F73T
  Leakage activity: 0%
  Relative activity of maturated deamidase (% initial rate): 42

B32: Chryseobacterium sp-62563 propeptide L74S (protein)
chain: B1 chain with H25V, L74S
  Leakage activity: 0%
  Relative activity of maturated deamidase (% initial rate): 40

B33: Chryseobacterium sp-62563 propeptide A76P (protein)
chain: B1 chain with H25V, A76P
  Leakage activity: 3%

B34: Chryseobacterium sp-62563 propeptide V7P (protein)
chain: B1 chain with V7P, H25V
  Leakage activity: 0%

B35: Chryseobacterium sp-62563 propeptide K86G (protein)
chain: B1 chain with H25V, K86G
  Leakage activity: 0%
  Relative activity of maturated deamidase (% initial rate): 34

B36: Chryseobacterium sp-62563 propeptide T88P (protein)
chain: B1 chain with H25V, T88P
  Leakage activity: 0%
  Relative activity of maturated deamidase (% initial rate): 46

B37: Chryseobacterium sp-62563 propeptide D90P (protein)
chain: B1 chain with H25V, D90P
  Leakage activity: 0%
  Relative activity of maturated deamidase (% initial rate): 55

B38: Chryseobacterium sp-62563 propeptide R93P (protein)
chain: B1 chain with H25V, R93P
  Leakage activity: 4%
  Relative activity of maturated deamidase (% initial rate): > 100
